Experimental data taken from the nanobody polyreactivity screen of Harvey et al. (2022).

Assay: yeast display, Sf9 membrane polyspecificity reagent, FACS + sequencing; frameworks hold sequencing errors
Summary of the method: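 In a synthetic yeast display library (Saccharomyces cerevisiae BJ5465), nanobody expression was induced with galactose for 36–48 hours. FACS gates were set low and high (top ~1%) using anti-HA fluorescence for expression and streptavidin fluorescence for binding of the Sf9 membrane reagent. Each polyreactivity label is drawn from the gate of origin.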

| Sequence | polyreactivity (PSR sort gate) |
| --- | --- |
| QVQLVESGGGLVQAGGSLRLSCAASGRIFTTNAMGWYRQAPGKERELVAAITYSGGTTYYADSVKGRFTISRDNAKNTVYLQMNSLKPEDTAVYYCAADVKFSTPYDYWGQGTQVTVSS | low polyreactivity |
| QVQLVESGGGLVQAGGSLRLSCAASGRIFTTYAMGWYRQAPGKERELVAAISRSGGSTYYADSVKGRFTISRDNAKNTVYLQMTSLNPEDTAVYYCAAVPTSNSFRSSFYYWGQGTQVTVSS | high polyreactivity |
| QVQLVESGGGLVQAGGSLRLSCAASGRIFTTYAMGWYRQAPGKERELVASISWRVGSTYYADTVKGRFTISRDNAKITVYLQMNSLKPEETAVYYCAAVGGNYHASRLRYYWGQVTQVTVSS | low polyreactivity |
| QVQLVESGGGLVQAGGSLRLSCAASGRIFTTYVMGCYRQAPGKERELVAAISWSGGNTYYADSVKGRFTISRDNAKNTVYLQMNSLKPEDTAVYYCNAVGTIREGDYWGQGTQVTVSS | low polyreactivity |
| QVQLVESGGGLVQAGGSLRLSCAASGRIFTWNAMGWYRQAPGKERELVASISRSGTSTYYADSVKGRFTISRDNAKNSVYLQMNSLKAEDTAVYYCAAKRYGYKMYYWGQGTQVTVSS | high polyreactivity |
| QVQLVESGGGLVQAGGSLRLSCAASGRIFTYAMGWYRQAPGKERELVAAISRRGGSTYYADSVKGRFTISRDNAKNTVYLQMNSLKPEDTAVYYCAKERSFGDGNFDYEYWGQGTQVTVSS | high polyreactivity |
| QVQLVESGGGLVQAGGSLRLSCAASGRIFTYYAMGWYRQAPGKEREFVAAISRSGGSTYYADSVKGRFTISRDNAKNTVYFQMNSLKPEDTAVYSCAADPPYRGRRGFDHNYWGQGTQVTVSS | high polyreactivity |
| QVQLVESGGGLVQAGGSLRLSCAASGRIFTYYAMGWYRQAPGKERELVAAINFNSGSTYYADSVKGRFTISRDTAKNTVYLQMNSLKPEDTAVYYCAAVPRRGLPKSYYYWGQGTQVTVSS | high polyreactivity |
| QVQLVESGGGLVQAGGSLRLSCAASGRIFTYYAMGWYRQAPGKERELVAAITGSGGSTYYADSVKGRFTISRDNAKNTVYLQMNSLKPEDTAVYYCAAYWFTATWYYYWGQGTQVTVSS | high polyreactivity |
| QVQLVESGGGLVQAGGSLRLSCAASGRIFTYYAMGWYRQAPGKERELVASITGSGGSTDYADSVKGRFTISLDNAKNTVYLQMNSLKPEDTAVYYCAADHSGVSRYDYWGQGTQVTVSS | low polyreactivity |
| QVQLVESGGGLVQAGGSLRLSCAASGRIFTYYAMGWYRQVPGKERELVAGISGSGTSTYYADSVKGRFTISRDNAKNTVYLQMNSLKPEDTAVYYCAAIRRQKGLWDYYYWGQGTQVTVSS | low polyreactivity |
| QVQLVESGGGLVQAGGSLRLSCAASGRIFVANAMGWYRPAPGKERELVAAISGRGSRTYYADSVKGRFTISRDNAKNTVYLQMNSLKPEDTAVYYCAVRKNRQYTGDYWGQGTQVTVSS | high polyreactivity |
| QVQLVESGGGLVQAGGSLRLSCAASGRIFVANAMGWYRQAPGKERELVAAISGRGSRTYYADSVKGRFTISRDNAKNTVYLQMNSLKPEDTAVYYCAARYRYDGRYDYWGQGTQVTVSS | high polyreactivity |
| QVQLVESGGGLVQAGGSLRLSCAASGRIFVANAMGWYRQAPGKERELVAAISSSGSTNYADSVKGRFTISRDNAKNTVYLQMNSLKPEDTAVYYCAKQHLSTGSWFDPFEMDYWGQGTQVTVSS | low polyreactivity |
| QVQLVESGGGLVQAGGSLRLSCAASGRIFVFNAMGWYRQAPGKERELVAAITWSGGTTYYADSVKGRFTISRDNAKNTVYLQMNSLKPEDTAVYFCNAYLNRRMGYWGQGTQVTVSS | high polyreactivity |
| QVQLVESGGGLVQAGGSLRLSCAASGRIFVFNDMGWYRQAPGKERELVAAISSGGNTYYADSVKGRFTISRDNAKNTVYLQMNSLKPEDTAVYYCAKVSRWSYKGSPYDYWGQGTQVTVSS | high polyreactivity |
| QVQLVESGGGLVQAGGSLRLSCAASGRIFVGNAMGWYRQAPGKERELVAAISRSGGRTYYADSVKGRFTISRDNAKNTVYLQMNSLKPEDTAVYYCYTRVYAGKYDYWGQGTQVTVSS | high polyreactivity |
| QVQLVESGGGLVQAGGSLRLSCAASGRIFVGYAMGWYRQAPGKERELVAAISRGGSTNYADSVKGRFTISRDNAKNTVYLQMNSLKPDDTAVYYCAKTYRTRWWGNGGDYWGQGTQVTVSS | high polyreactivity |
| QVQLVESGGGLVQAGGSLRLSCAASGRIFVGYAMGWYRQAPGKVREFFAAITWSGGSTSYADSVKGRFTISRDNAKNTVYLQKNSLKPEDTAVYYCNARRYYYFGLSLYEYDYWGQGTQVTVSS | low polyreactivity |
| QVQLVESGGGLVQAGGSLRLSCAASGRIFVINAMGWYRQAPGKERELVAAISSSGGSTSYADSVKGRFTISRDNAKNTVYFQMNSLKPEDTAVYYCAAKPRVRRVDGYYWGQGTQVTVSS | high polyreactivity |
| QVQLVESGGGLVQAGGSLRLSCAASGRIFVINAMGWYRQAPGKERELVAAISSSGGSTSYADSVKGRFTISRDNAKNTVYLQMNSLKPEDTAVYYCAAKPRVRRVDGYYWGQGSQVTVSS | high polyreactivity |
| QVQLVESGGGLVQAGGSLRLSCAASGRIFVIYAMGWYRQAPGKERELVAVISSDGSTYYADSVKGRFTISRDNAKNTVYLQMNSLKPEDTAVYYCAADRIGRYRPYIGWVVRSYYWGQGTQVTVSS | low polyreactivity |

| Sequence | polyreactivity (PSR sort gate) |
| --- | --- |
| QVQLVESGGGLVQAGGSLRLSCAASGRIFVLYAMGWYRHSPGKERELVAAINWSGGSTFYADSVKGRFTISRDNAKNTVYLQMNSLKPEDTAVYYCNARGLRVKYDYWGQGTQVTVSS | high polyreactivity |
| QVQLVESGGGLVQAGGSLRLSCAASGRIFVLYAMGWYRQAPGKERELVAAINWSGGSTFYADSVKGRFTISRDNAKNTVYLQMNSLKPEDTAVYYCAADPYFWSALRIGQNDYWGQGTQVTVSS | high polyreactivity |
| QVQLVESGGGLVQAGGSLRLSCAASGRIFVNNAMGWYRPAPGKERELVAAISKRGGSTYYADSLKGRFTISRDNAMNTVYLHMNSLKPEDTAVYYCAASGYRYPIDGDYWGQGTEVTVSS | high polyreactivity |
| QVQLVESGGGLVQAGGSLRLSCAASGRIFVNYAMGWYRQAPGKERELVAAITSSGGSTYYADSVKGRFTISRDNAKNTVYLQMNSLKPEDTAVYYCAARWGRGLEFDYWGQGTQVTVSS | high polyreactivity |
| QVQLVESGGGLVQAGGSLRLSCAASGRIFVPYVMGWYRQAPGKERELVAAISSSGGSTYYADSVKGRFTISRDNAKNTVYLQMNSLKQEDTAVYYCAKPYYFHEEDHWGQGSQVTVSS | low polyreactivity |
| QVQLVESGGGLVQAGGSLRLSCAASGRIFVPYVMGWYRQAPGKERELVASISDSDTSTYYADSVKGRFTISRDNAKNTVYLQMNCLKPEDTAVYYCNVDYWGQGTQVTVSS | low polyreactivity |
| QVQLVESGGGLVQAGGSLRLSCAASGRIFVPYVMGWYRQAPGKERELVASISDSDTSTYYADSVKGRFTISRDNAKNTVYLQMNSLKPEDSAVYYCNVDYWGQGTQVTVSS | low polyreactivity |
| QVQLVESGGGLVQAGGSLRLSCAASGRIFVPYVMGWYRQAPGKERELVASISDSDTSTYYADSVKGRFTISRDNAKNTVYVQMNSLKPEDTAVYYCNVDYWGQGTQVTVSS | low polyreactivity |
| QVQLVESGGGLVQAGGSLRLSCAASGRIFVQYAMGWYRQAPGKERELVAAISGSGGRTYYADSVKGRFTISRDNAKNTVYLQMNSLKPEDTAVYYCNTARLHGQTQGGDYWGQGTQVTVSS | high polyreactivity |
| QVQLVESGGGLVQAGGSLRLSCAASGRIFVQYAMGWYRQAPGKERELVAAISGSGGRTYYADSVKGRFTISRDNAKNTVYLQMNSLKPEDTAVYYCNTARRHGQTQGGDYWGQGTQLTVSS | high polyreactivity |
| QVQLVESGGGLVQAGGSLRLSCAASGRIFVRNAMGWYRQAPGKERELVADITNGGSTNYADSVKGRFTITRDNAKNTVYLQMNSLKPEDTAVYYCAADTLGVYDGDYWGQVTQVTVSS | low polyreactivity |
| QVQLVESGGGLVQAGGSLRLSCAASGRIFVRYAMGWYRQAPGKERELVAAISWSAGSTYYADSVKGRFTISRDNAKNTVYLQMNSLKPEDTAVYYCAAEYGNYETGHYGIYDYWGQGTQVTVSS | low polyreactivity |
| QVQLVESGGGLVQAGGSLRLSCAASGRIFVRYARGWYSQAPGKERELVAAITSGGRTSYADSVKGRFTISRDNAKNTVYLQMNSLKPEDTAVYYWNVVSRNSIRFDYWGQGTQVTVSS | high polyreactivity |
| QVQLVESGGGLVQAGGSLRLSCAASGRIFVRYTMGWYRQAPGKERELVAAITKRGGSTYYADSVKGRFTISRDNAKNTVYLQMNSLKPEDTAVYYCATDGLGYNRPQDEYWGLGTQVTVSS | high polyreactivity |
| QVQLVESGGGLVQAGGSLRLSCAASGRIFVSNAMGWYRLAPGKERELVATISRSGGNTYYADSVKGRFTISRDNAKNTVYLQMNSLKPEYTAVYYSNSVSRRSYVKYDYWRQGTQVTVSS | high polyreactivity |
| QVQLVESGGGLVQAGGSLRLSCAASGRIFVSNTMGWYRQAPGKERELVAVIRTDSGSTYYADSVKGRFTISRDNAKNTVYLQMNSLKPEDTAVYYCAKVAYFASYRTGFYYWGQGTQVTVSS | high polyreactivity |
| QVQLVESGGGLVQAGGSLRLSCAASGRIFVSNVRGWYRQAPGKERELVAAIDKSGGSTYYADSVKGRFTISRDNAKNSVYLQMNSLKPEDTAVYYCAATSYRQPYRYYYWGQGTQVTVSS | high polyreactivity |
| QVQLVESGGGLVQAGGSLRLSCAASGRIFVSYAMGWYRQAPGKERELVAAISRGGSTYYADSVKGRFTISRDNAKNTVYLQMNSLKPEDTAVYYCAARPSYRYGYWGQGTQVTVSS | high polyreactivity |
| QVQLVESGGGLVQAGGSLRLSCAASGRIFVSYAMGWYRQAPGKERELVATINIGSDTYYADSVKGRFTISRDNAKNTVYLQMNSLKPEDTAVYYCAKDYYEGDSYPYPGYEYWGQGTQVTVSS | low polyreactivity |
| QVQLVESGGGLVQAGGSLRLSCAASGRIFVTYAMGWYRQEPGKERELVAAISASGGSTYSADSVKGRFTISRDNAKNTVYLQMNSLKPEDTAVYYCAASYRSSLRPWAEDGFWGQGTQVTVSS | high polyreactivity |
| QVQLVESGGGLVQAGGSLRLSCAASGRIFVVNAMGWYRQAPGKERELVAAISRSGGSTYYADSVKGRFTISRDNAKNTVYLQMNSLKPEETAVYFCAAVSWIYSFSAMSIYDYWGQGTQVTVSS | high polyreactivity |
